# Source: article PMC2747018
# Target: U1-A protein of the native human U1 snRNP (human (endogenous in HeLa)) (UniProt P09012)
# Assay: native MS; nano ESI-MS of the intact U1 snRNP purified from HeLa cells, 200 mM ammonium acetate, Q-ToF2, collision cell 100 V; the complex holds U1 snRNA
# UniProt P09012, sequence (P09012 whole entry): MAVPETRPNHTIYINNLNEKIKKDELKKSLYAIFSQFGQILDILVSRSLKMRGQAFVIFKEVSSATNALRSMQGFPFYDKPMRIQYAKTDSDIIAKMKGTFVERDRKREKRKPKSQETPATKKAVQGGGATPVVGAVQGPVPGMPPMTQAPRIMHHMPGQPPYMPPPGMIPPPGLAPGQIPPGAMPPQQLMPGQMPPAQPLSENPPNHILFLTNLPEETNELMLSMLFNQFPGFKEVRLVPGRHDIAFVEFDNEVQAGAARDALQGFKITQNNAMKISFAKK
row,Substance,stoichiometry N
1,Sm-D1 (from UniProt P62314 1-119) (natural protein; other documents disagree on this pair),1
2,Sm-F (from UniProt P62306 1-86) (natural protein; other documents disagree on this pair),1
